Results as given in patent publication US20180087053, “ANTI-CANCER RNA APTAMERS” (CITY OF HOPE, published 2018).

Molecular target: mortalin (mitochondrial Hsp70, mHSP70) on PANC-1 cell surface (Homo sapiens, UniProt P38646 P38646:47-679)
Assay: flow; intact PANC-1 cells, 37 C, 15.6-500 nM aptamer; target identified as mortalin by pulldown/MS
Conditions: tags: endogenous, label: Cy3 (flow) or 3'-biotin (SPR, pulldown), multi-stem-loop (Mfold)
Method: FIG. 1A-1G: Showing the secondary structure and pancreatic cancer specific internalization (FIG. 1A). Cartoon of the secondary structures of P19 (SEQ ID NO:2) and P1 (SEQ ID NO:4) are shown; aptamers were selected from randomized N40 RNA libraries and were predicted using the Mfold program. (FIG. 1B) Cy3-labeled RNAs were tested for binding to PANC-1 and NC as control cells by flow cytometry. Data represent the average of three replicated. Initial RNA library pool is shown as Library, P1 and P19. Cy3 labeled P19 and P1 incubation in. (FIG. 1C) Cy3-labeled RNAs (100 nM) was tested for internalization by confocal in negative cells, PANC-1 and MIA PaCa-2: Cy3-labeled RNA. (FIG. 1D) Cy3-labeled RNAs (100 nM) was tested for the internalization in primary pancreatic epithelial cells; Cy3-labeled RNA. (FIG. 1E) The representative images by histopathological screen in pancreatic cancer and normal pancreas. The samples were stained with Cy3 labeled aptamer P1 and P19 respectively and examined at 100× magnification. White arrow indicate that P19 binding to cancer region. Cy3-labeled RNA. (FIG. 1F) A total of 72 patients of pancreatic adenocarcinoma had undergone. The Correlation coefficient between P1 and P19 is 0.891. […] Median fluorescence intensity (MFI) was measured and calculated using one site binding non-linear curve regression with a Graph Pad Prism.

mortalin (mitochondrial Hsp70, mHSP70) on PANC-1 cell surface, sequence (P38646 47-679, one chain of several): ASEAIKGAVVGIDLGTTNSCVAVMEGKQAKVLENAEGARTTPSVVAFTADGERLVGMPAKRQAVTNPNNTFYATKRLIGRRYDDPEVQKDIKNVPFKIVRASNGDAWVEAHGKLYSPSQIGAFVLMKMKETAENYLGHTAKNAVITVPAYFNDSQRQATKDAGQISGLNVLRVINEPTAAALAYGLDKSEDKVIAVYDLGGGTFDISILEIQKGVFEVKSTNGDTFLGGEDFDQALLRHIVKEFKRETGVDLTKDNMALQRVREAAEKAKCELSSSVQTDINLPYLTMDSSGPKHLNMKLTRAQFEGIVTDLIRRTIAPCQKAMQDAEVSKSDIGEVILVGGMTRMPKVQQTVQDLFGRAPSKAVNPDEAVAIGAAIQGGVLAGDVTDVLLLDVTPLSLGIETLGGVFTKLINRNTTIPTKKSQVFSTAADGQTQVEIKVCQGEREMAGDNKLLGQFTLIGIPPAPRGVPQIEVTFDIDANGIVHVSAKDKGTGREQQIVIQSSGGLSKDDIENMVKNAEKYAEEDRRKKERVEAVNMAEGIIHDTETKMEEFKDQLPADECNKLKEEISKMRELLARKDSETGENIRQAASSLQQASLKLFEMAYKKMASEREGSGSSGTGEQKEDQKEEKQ

B1: P19 (ssRNA)
RNA: GGGAGACAAGAAUAAACGCUCAAUGGCGAAUGCCCGCCUAAUAGGGCGUUAUGACUUGUUGAGUUCGACAGGAGGCUCACAACAGGC
modifications: 2'-F pyrimidines
Work on B1 yielded a Kd of 13.1 nM.
